In US20230044380A1:

Biological target: T1, CD70 (UniProt P32970)
T1 sequence (looked up): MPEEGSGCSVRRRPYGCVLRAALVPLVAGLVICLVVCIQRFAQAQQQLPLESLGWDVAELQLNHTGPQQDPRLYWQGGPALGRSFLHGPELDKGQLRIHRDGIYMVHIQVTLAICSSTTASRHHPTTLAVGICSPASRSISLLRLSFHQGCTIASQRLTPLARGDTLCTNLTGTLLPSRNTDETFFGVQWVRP
Experiment: cell-based or functional assay

percentage of CD107a positive T cells in CD8 positive T cells; CD27 CAR + LACO (A40C.28) T cells stimulated by 786-O (CD70 + + +): 27.3%
percentage of CD107a positive T cells in CD8 positive T cells; CD27 CAR + LACO (A40C.28) T cells stimulated by A498-CBG (CD70 + + +): 22.7%
percentage of CD107a positive T cells in CD8 positive T cells; CD27 CAR + LACO (A40C.28) T cells stimulated by A549-CBG (CD70 +): 3.3%
percentage of CD107a positive T cells in CD8 positive T cells; CD27 CAR + LACO (A40C.28) T cells stimulated by HS766T-CBG (CD70 +): 9.7%
percentage of CD107a positive T cells in CD8 positive T cells; CD27 CAR + LACO (A40C.28) T cells stimulated by Jeko-1-CBG (CD70 + + +): 34.4%
percentage of CD107a positive T cells in CD8 positive T cells; CD27 CAR + LACO (A40C.28) T cells stimulated by OVCAR3 (CD70 +): 6.9%
percentage of CD107a positive T cells in CD8 positive T cells; CD27 CAR + LACO (A40C.28) T cells stimulated by PC3-CBG (CD70 + +): 15.9%
percentage of CD107a positive T cells in CD8 positive T cells; CD27 CAR + LACO (A40C.28) T cells stimulated by Raji-CBG (CD70 + + +): 30.3%
percentage of CD107a positive T cells in CD8 positive T cells; CD27 CAR + LACO (A40C.28) T cells stimulated by SKOV3-CBG (CD70 +): 3.3%
percentage of CD107a positive T cells in CD8 positive T cells; CD27 CAR + LACO (A40C.28) T cells stimulated by THP1 (CD70 + +): 22.2%
percentage of CD107a positive T cells in CD8 positive T cells; CD27 CAR + LACO (A40C.28) T cells stimulated by U87-CBG (CD70 + + +): 32%
percentage of CD107a positive T cells in CD8 positive T cells; CD27 CAR + LACO (A40C.28) T cells stimulated by U937 (CD70 + +): 9%
percentage of CD107a positive T cells in CD8 positive T cells; CD27 CAR T cells stimulated by 786-O (CD70 + + +): 27.6%
percentage of CD107a positive T cells in CD8 positive T cells; CD27 CAR T cells stimulated by A498-CBG (CD70 + + +): 30.8%
percentage of CD107a positive T cells in CD8 positive T cells; CD27 CAR T cells stimulated by A549-CBG (CD70 +): 4.4%
percentage of CD107a positive T cells in CD8 positive T cells; CD27 CAR T cells stimulated by HS766T-CBG (CD70 +): 15%
percentage of CD107a positive T cells in CD8 positive T cells; CD27 CAR T cells stimulated by Jeko-1-CBG (CD70 + + +): 23.1%
percentage of CD107a positive T cells in CD8 positive T cells; CD27 CAR T cells stimulated by OVCAR3 (CD70 +): 8.8%
percentage of CD107a positive T cells in CD8 positive T cells; CD27 CAR T cells stimulated by PC3-CBG (CD70 + +): 16%
percentage of CD107a positive T cells in CD8 positive T cells; CD27 CAR T cells stimulated by Raji-CBG (CD70 + + +): 29.9%
percentage of CD107a positive T cells in CD8 positive T cells; CD27 CAR T cells stimulated by SKOV3-CBG (CD70 +): 3.2%
percentage of CD107a positive T cells in CD8 positive T cells; CD27 CAR T cells stimulated by THP1 (CD70 + +): 20.2%
percentage of CD107a positive T cells in CD8 positive T cells; CD27 CAR T cells stimulated by U87-CBG (CD70 + + +): 37.8%
percentage of CD107a positive T cells in CD8 positive T cells; CD27 CAR T cells stimulated by U937 (CD70 + +): 7.1%
B1: CD27.Z (CD70 CAR) (protein)
chain: ATPAPKSCPERHYWAQGKLCCQMCEPGTFLVKDCDQHRKAAQCDPCIPGVSFSPDHHTRPHCESCRHCNSGLLVRNCTITANAECACRNGWQCRDKECTECDPLPNPSLTARSSQALSPHPQPTHLPYVSEMLEARTAGHMQTLADFRQLPARTLSTHWPPQRSLCSSDFIRILVIFSGMFLVFTLAGALFLHQRRKYRSNKGESPVEPAEPCRYSCPREEEGSTIPIQEDYRKPEPACSPRVKFSRSADAPAYQQGQNQLYNELNLGRREEYDVLDKRRGRDPEMGGKPRRKNPQEGLYNELQKDKMAEAYSEIGMKGERRRGKGHDGLYQGLSTATKDTYDALHMQALPPR
